pKd: −log10 of the molar value.
Key:
[1] = biological target: Plasmodium falciparum Hsp70‐x (full length) (Plasmodium falciparum); assay: SPR; PfHsp70‐x or PfHsp70‐xT immobilised on ProteOn GLC chips, hHop as analyte at 125-2000 nM, 25°C, PBS‐Tween pH 7.4, no nucleotide, Langmuir model
[2] = biological target: PfHsp70‐x C‐terminal truncated version with a missing EEVN motif (Plasmodium falciparum); assay: as above
[3] = biological target: Plasmodium falciparum Hsp70‐x (full length) (Plasmodium falciparum); assay: SPR; PfHsp70‐x or PfHsp70‐xT immobilised on ProteOn GLC chips, hHop as analyte at 125-2000 nM, 25°C, PBS‐Tween pH 7.4, with 5 mM ATP, Langmuir model
[4] = biological target: PfHsp70‐x C‐terminal truncated version with a missing EEVN motif (Plasmodium falciparum); assay: as above
[5] = biological target: Plasmodium falciparum Hsp70‐x (full length) (Plasmodium falciparum); assay: SPR; PfHsp70‐x or PfHsp70‐xT immobilised on ProteOn GLC chips, hHop as analyte at 125-2000 nM, 25°C, PBS‐Tween pH 7.4, with 5 mM ADP, Langmuir model
[6] = biological target: PfHsp70‐x C‐terminal truncated version with a missing EEVN motif (Plasmodium falciparum); assay: as above

“human Hsp70‐Hsp90 organizing protein (from UniProt P31948 1-543) (natural protein)” showed a pKd [1] of 7.52, a koff [1] of 2.3e-05 s⁻¹ and a kon [1] of 4300 M⁻¹ s⁻¹. It also gave a pKd [2] of 5.68, a koff [2] of 1.01e-05 s⁻¹ and a kon [2] of 24.7 M⁻¹ s⁻¹. It also gave a pKd [3] of 6.42, a koff [3] of 0.00044 s⁻¹ and a kon [3] of 3470 M⁻¹ s⁻¹. It also gave a pKd [4] of 4.39, a koff [4] of 0.00032 s⁻¹ and a kon [4] of 54.1 M⁻¹ s⁻¹. The pKd [5] was 7.64, the koff [5] was 3.7e-05 s⁻¹ and the kon [5] was 3300 M⁻¹ s⁻¹. For the same substance, the pKd [6] was 5.78, the koff [6] was 2.1e-05 s⁻¹ and the kon [6] was 42.6 M⁻¹ s⁻¹.
